Tests used:
Type in all cases: cell-based, human
P-AKT(S473) [1] = test: P-AKT induction after NKG2D crosslinking in freshly isolated cancer cells (immunoblot); conditions: sorted EpCAM+CD45− breast, ovarian, prostate cancer cells after serum deprivation; crosslinked Ab 5 μg/ml or insulin 5 μg/ml
Source text: (§1) NKG2D was immunoprecipitated from standard NP-40 buffer lysates of FACSAria-sorted EpCAM^+CD45^− cancer cells (˜5×10^6 per lane), tumor lines (˜5×10^7 cells; 2×10^7 cells with BT-20), and transfectants (5×10^6 cells) using mAb 5C6 immobilized on AminoLink Plus Coupling Resin (Pierce). DAP10 was immunoprecipitated using rabbit polyclonal antibodies (FL-93; Santa Cruz Biotechnology). Immunoblots were probed with polyclonal antibodies to NKG2D or DAP10 (N-20 and N-17; Santa Cruz Biotechnology), or Grb2 (Cell Signaling Technology) and developed using secondary reagents and Supersignal West Dura Extended Duration Substrate (Pierce). Immunoprecipitation and immunoblot detection of mouse NKG2D utilized a rat mAb (clone 191004; R&D Systems) and goat polyclonal reagent (H-15; Santa Cruz Biotechnology), respectively. […] Phosphoproteins and protein controls were detected using rabbit polyclonal antibodies (to P-mTOR, P-S6K1, and P-4E-BP1), mAbs (clones 7C10, 236B4, and 53H11), and anti-rabbit IgG-HRP (all from Cell Signaling Technology). MAPKs were detected with cells grown to semi-confluence in 6-well plates and desensitized for 24 h. […]

P-AKT(S473) [2] = test: P-AKT induction after NKG2D crosslinking in tumor lines (immunoblot); conditions: desensitized MCF-7, BT-20, MDA-MB-453, HTB-78, DLD-1, AGS cells
Source text: as §1

[3] = system: P-mTOR(S2448), P-S6K1(T389), and P-4E-BP1(T37/46); test: Activation of mTOR-S6K1/4E-BP1 after NKG2D crosslinking (immunoblot); conditions: HTB-78 and MCF-7-TF cells after starvation
P-ERK1/2(T202/Y204) = test: ERK MAP kinase activation by sMICA plus crosslinking anti-His tag Ab (immunoblot); conditions: for phosphorylation of ERK1/2: desensitized EpCAM+CD45− ovarian cancer (OT63), HTB-78, MCF-7-TF cells, sMICA 1 μg/ml crosslinked by anti-His tag Ab, or EGF 100 ng/ml
Source text: (§2) NKG2D was immunoprecipitated from standard NP-40 buffer lysates of FACSAria-sorted EpCAM^+CD45^− cancer cells (˜5×10^6 per lane), tumor lines (˜5×10^7 cells; 2×10^7 cells with BT-20), and transfectants (5×10^6 cells) using mAb 5C6 immobilized on AminoLink Plus Coupling Resin (Pierce). DAP10 was immunoprecipitated using rabbit polyclonal antibodies (FL-93; Santa Cruz Biotechnology). Immunoblots were probed with polyclonal antibodies to NKG2D or DAP10 (N-20 and N-17; Santa Cruz Biotechnology), or Grb2 (Cell Signaling Technology) and developed using secondary reagents and Supersignal West Dura Extended Duration Substrate (Pierce). Immunoprecipitation and immunoblot detection of mouse NKG2D utilized a rat mAb (clone 191004; R&D Systems) and goat polyclonal reagent (H-15; Santa Cruz Biotechnology), respectively. For P-AKT induction, cancer cells and tumor lines (2×10^6 cells per experimental condition) cultured in 6-well plates were desensitized for 16 h and 4-24 h, respectively, in serum-free RPMI at 37° C. before exposure in 0.5 ml RPMI to insulin (5 μg/ml; 35 min at 37° C.), mAb 1D11 (purified with MabTrap Kit; GE Healthcare Life Sciences) or mAb 5C6 F(ab′)2 (produced with Pierce F(ab′)2 preparation kit) (each 5 μg/ml; 30 min at 4° C.). For crosslinking, washed cells in 0.2 ml RPMI were exposed to goat anti-mouse F(ab′)2 (20 μg/ml; 5 min at 37° C.; Jackson ImmunoResearch). Wortmannin (100 nM; Sigma) was applied 2 h before stimulations. Reactions were terminated on ice by addition of 1 ml sodium orthovanadate (Na3VO4, 2 mM in cold PBS; Calbiochem) and cells resuspended in NP-40 lysis buffer with protease inhibitor cocktail (Roche) and Na3VO4. Cleared supernatants were subjected to SDS-PAGE (4-12% gradient NuPAGE gels; Invitrogen) and proteins electroblotted onto PVDF membranes (Immobilon-P; Millipore), which were probed with rabbit anti-human phospho-AKT(S473) (clone 193H12) or pan-AKT (clone C67E7), secondary HRP-conjugated anti-rabbit IgG (all from Cell Signaling Technology), and chemiluminescent reagent. […] Inhibitors wortmannin (100 nM) and rapamycin (50 nM; LC Laboratories) were added after 2 h of desensitization. Detached cells were sequentially washed and exposed to 1D11 mAb and crosslinking Ab in 0.5 and 0.2 ml cold HBSS, respectively, and processed as above. […] Phosphoproteins and protein controls were detected using rabbit polyclonal antibodies (to P-mTOR, P-S6K1, and P-4E-BP1), mAbs (clones 7C10, 236B4, and 53H11), and anti-rabbit IgG-HRP (all from Cell Signaling Technology). MAPKs were detected with cells grown to semi-confluence in 6-well plates and desensitized for 24 h. […]
(§3) As determined so far, signaling pathway activation by NKG2D-DAP10 in tumor cells was similar to lymphocytes. […]

P-JNK1/2(T183/Y185) = test: JNK MAP kinase activation by sMICA plus crosslinking anti-His tag Ab (immunoblot); conditions: for phosphorylation of JNK1/2: desensitized EpCAM+CD45− ovarian cancer (OT63), HTB-78, MCF-7-TF cells, sMICA 1 μg/ml crosslinked by anti-His tag Ab, or EGF 100 ng/ml
Source text: as §2, §3

surface NKG2D = test: Flow cytometry of tumor lines for surface NKG2D; conditions: breast, colon, gastric, ovarian, prostate tumor lines after exposure
Method: Tumor cell lines BT-20, MDA-MB-453, HTB-78, AGS, MDA-MB-231, DLD-1, PC3, and A375 were grown in RPMI 1640, and MCF-7 in Eagle's minimal essential medium (EMEM) plus insulin (0.01 mg/ml; Sigma), both media supplemented with 10% FBS. The mouse TEC and PAM 212 lines were from the ATCC, and […] was provided by Dr. Norm Greenberg (FHCRC). Abs for immunohistochemistry and flow cytometry of cell surface markers were mAb together with HRP-conjugated secondary reagents and mAb-fluorochrome conjugates, respectively, to NKG2D (clone 1D11, -APC; 3), MICA/MICB (clone 6D4, -PE; 7), CD45 (clone 2D1, -APC-Cy7), CD3 (clone UCHT1) (all from BD Pharmingen), and EpCAM (clone 9C4, -Alexa Fluor 488; BioLegend). Binding of anti-ULBP1-5 antibodies (mAbs 3F1, 6F6, 4F9, 6E6, and 6D10; 14) was visualized with a PE-conjugated secondary reagent. Cancer cell viability was assessed using a LIVE/DEAD Fixable Violet Dead Cell Stain kit (Invitrogen). Immunohistochemistry stainings of tissue cryosections employed the Envision System (Dako) protocol. Cells were examined for mAb surface stainings using a BD LSR II flow cytometer and FlowJo software (Tree Star).

MCF-7-TF cells [4] = test: Cell cycle analysis by propidium iodide staining; conditions: MCF-7-TF cells plated 24 h at near confluence without growth factors; Abs each 10 μg/ml
Method: DNA contents were determined with 70% EtOH-permeabilized and fixed cells treated with PI/RNase staining buffer (BD Pharmingen). Prior to analysis, cells were plated for 24 h in the presence or absence of each 10 μg/ml anti-MIC and -ULBP3 and -ULBP4 mAb or control Ig. Flow cytometry data were analysed using FlowJo cell cycle software with quantitative analysis based on Dean-Jett-Fox model curve fitting. Cellular ATP was determined using the ATPlite luminescence assay system (PerkinElmer). Real-time oxygen consumption and extracellular acidification rates were measured employing the Seahorse Bioscience Extracellular Flux Analyzer XF24 with cells (3×10^4) seeded in custom 24-well plates and grown overnight (34). Metabolic rates were calculated from multiple measurements in buffer-free medium within one h at 37° C. Differences in cell growth rates were accounted for by using fluorescence emission values of Hoechst stainings to calculate normalization factors for cell number corrections.
The inventors thus explored effects on cellular functions resulting from NKG2D stimulation using the MCF-7 mock-transfected control and MCF-7-TF model cells. Cells were plated at near confluence in the absence of growth factors with or without the relevant anti-MIC and anti-ULBP1/3/4 Abs or control Ig 24 h before assay time (FIG. 7). […]

[5] = system: AKT(S473) phosphorylation; test: Inducible AKT phosphorylation in siRNA-transduced MCF-7 cells; conditions: lentiviral siRNA transduction
Source text: as §1

NKG2D = NKG2D protein depletion by siRNA (immunoblot); conditions: CD8 T cells, 2×10^6 per lane
Source text: as §1

MCF-7-TF cells [6] = test: EMT-like phenotype of MCF-7-TF cells (phase contrast, IF microscopy, immunoblot)
Source text: Diagnostic of EMT, among other criteria, are reduced expression of E-cadherin and induction of N-cadherin (Polyak and Weinberg, 2009; Thiery et al., 2009; Yang and Weinberg, 2008). […] Among key transcription factors is SNAI1 and Twist, which were induced in MCF-7-TF as well as in MCF-10A-TF and SUM149PT-TF cells (FIG. 8C). MCF-7-TF cells also scored increased migratory and invasive activities in Matrigel assays (FIG. 8D). Both ERK- and AKT-initiated signaling have been implicated in cancer EMT (Thiery et al., 2009).

MCF-7-TF cells [7] = test: Migration through porous filters and invasion in Matrigel assay
Method: MCF-7 cells were evaluated for stimulation of cellular migration through porous filters and for invasion of reconstituted basement membranes in MATRIGEL assays (FIG. 10).

MCF-7 cells = test: Expansion of siRNA-transduced MCF-7 cells
DAP10 = DAP10 protein depletion by siRNA (immunoblot); conditions: CD8 T cells, 2×10^6 per lane
Source text: as §1

[8] = U0126 10 μM, SP600125 100 μM, wortmannin 200 nM, added 30 min before stimulation
[9] = tumor cell exposure to sMICA or anti-His tag Ab alone, no crosslinking

“insulin: positive control activation of AKT, 5 μg/ml” was tested, and the “induction of Phospho-AKT (P-AKT)” value (P-AKT(S473) [1]) was “positive control activation except for the unresponsive prostate cancer cells”, the “induction of P-AKT” value (P-AKT(S473) [2]) was “positive control activation” and the “induction of P-mTOR(S2448), P-S6K1(T389), P-4E-BP1(T37/46)” value [3] was “positive control activation”.

With N#CC(=C(/N)Sc1ccccc1N)/C(C#N)=C(\N)Sc1ccccc1N [U0126, reference compound] the “effect of inhibitor on appearance of P-ERK1/2” value (P-ERK1/2(T202/Y204); [8]) was “diminished” and the “effect of inhibitor on appearance of P-JNK1/2” value (P-JNK1/2(T183/Y185); [8]) was “not vice versa”.

For “EGF: rhEGF, positive control activation of MAP kinases [reference compound]”, the “phosphorylation of ERK1/2” value (P-ERK1/2(T202/Y204)) was “positive control activation” and the “phosphorylation of JNK1/2” value (P-JNK1/2(T183/Y185)) was “positive control activation”.

For “IL-15: cytokine which induces T cell NKG2D”, the “surface NKG2D expression” value (surface NKG2D) was “No increased expression”.

B1: RNAi targeting of NKG2D: lentivirally expressed hairpin siRNA targeting NKG2D (KLRK1) mRNA positions 690-710; oligonucleotides SEQ ID NO:19 and 20 (nucleic acid, listed as Homo sapiens)
chain 1: CTAGACCCAACCTACTAACAATAATTTCAAGAGAATTATTGTTAGTAGGTTGGGTTTTTGAT
chain 2: ATCAAAAAACCCAACCTACTAACAATAATTCTCTTGAAATTATTGTTAGTAGGTTGGGT
modifications: the letters are possibly those of the target site
With B1 the “effect on enlarged proportions of cells in S and G2 phase” value (MCF-7-TF cells [4]) was “reversed”, the “inducible AKT(S473) phosphorylation” value [5] was “Absence of inducible AKT(S473) phosphorylation” and the “depletion of NKG2D” value (NKG2D) was “depletion”. For the same molecule, the “changes in epithelial and mesenchymal marker proteins (E-cadherin, N-cadherin)” value (MCF-7-TF cells [6]; IF microscopy and immunoblot) was “reversed”, the cell morphology (MCF-7-TF cells [6]; phase contrast microscopy) was “restored the parental cell morphology” and the “migratory and invasive activities” value (MCF-7-TF cells [7]) was “suppressed”.

B2: DAP10 siRNA: lentivirally expressed hairpin siRNA targeting DAP10 (HCST) mRNA positions 165-193; oligonucleotides SEQ ID NO:21 and 22 (nucleic acid, listed as Homo sapiens)
chain 1: CTAGAAGCTCAGACGACTCCAGGAGAGAGATCATTCAAGAGATGATCTCTCTCCTGGAGTCGTCTGAGCTTTTTTTGAT
chain 2: ATCAAAAAAAGCTCAGACGACTCCAGGAGAGAGATCATCTCTTGAATGATCTCTCTCCTGGAGTCGCTGAGCTT
modifications: the letters are possibly those of the target site
For B2, the “inducible AKT(S473) phosphorylation” value [5] was “Absence of inducible AKT(S473) phosphorylation”, the “proliferation of transduced cells” value (MCF-7 cells) was “proliferated poorly” and the “depletion of DAP10” value (DAP10) was “depletion”.

B3: sMICA: recombinant soluble MICA, His-tagged NKG2D ligand purified from transfected 293T cells (protein)
chain: EPHSLRYNLTVLSWDGSVQSGFLTEVHLDGQPFLRCDRQKCRAKPQGQWAEDVLGNKTWDRETRDLTGNGKDLRMTLAHIKDQKEGLHSLQEIRVCEIHEDNSTRSSQHFYYDGELFLSQNLETKEWTMPQSSRAQTLAMNVRNFLKEDAMKTKTHYHAMHADCLQELRRYLKSGVVLRRTVPPMVNVTRSEASEGNITVTCRASGFYPWNITLSWRQDGVSLSHDTQQWGDVLPDGNGTYQTWVATRICQGEEQRFTCYMEHSGNHSTHPVPSGKVLVLQSHW
modifications: left off: small tags and cut ends
notes: recombinant soluble MICA, His-tagged NKG2D ligand purified from transfected 293T cells
B3 was tested, and the “phosphorylation of ERK1/2” value (P-ERK1/2(T202/Y204)) was “resulted in phosphorylation”, the “phosphorylation of ERK1/2, reagent alone” value (P-ERK1/2(T202/Y204); [9]) was “no effect” and the “phosphorylation of JNK1/2” value (P-JNK1/2(T183/Y185)) was “resulted in phosphorylation”. For the same molecule, the “phosphorylation of JNK1/2, reagent alone” value (P-JNK1/2(T183/Y185); [9]) was “no effect”.
